Measurements: patent US20250320281A1

Columns and labels:
[1] = target: HIV-1 92BR020 envelope glycoprotein (Env) on pseudovirus (HIV-1); assay: cell-based or functional assay
[2] = target: HIV-1 92TH021 envelope glycoprotein (Env) on pseudovirus (HIV-1); assay: cell-based or functional assay
[3] = target: HIV-1 APV-13 envelope glycoprotein (Env) on pseudovirus (HIV-1); assay: cell-based or functional assay
[4] = target: HIV-1 Env of isolate 92UG024 (clade D pseudovirus) (HIV-1); assay: cell-based or functional assay
[5] = target: HIV-1 Env of isolate 93IN905 (HIV-1); assay: cell-based or functional assay
[6] = target: HIV-1 Env of isolate MGRM-D-004 (clade D pseudovirus) (HIV-1); assay: cell-based or functional assay
[7] = target: HIV-1 Env of isolate MGRM-D-016 (clade D pseudovirus) (HIV-1); assay: cell-based or functional assay
[8] = target: HIV-1 Env of isolate MGRM-D-020 (clade D pseudovirus) (HIV-1); assay: cell-based or functional assay
[9] = target: HIV-1 Env of pseudovirus MGRM-AG-001 (clade CRF_AG) (HIV-1); assay: cell-based or functional assay
[10] = target: HIV-1 Env of pseudovirus MGRM-AG-013 (clade CRF_AG) (HIV-1); assay: cell-based or functional assay
[11] = target: HIV-1 Env of pseudovirus MGRM-Chronic-B-023 (HIV-1); assay: cell-based or functional assay
[12] = target: HIV-1 Env of pseudovirus MGRM-F1-014 (HIV-1); assay: cell-based or functional assay
[13] = target: HIV-1 Env of pseudovirus MGRM-F1-015 (HIV-1); assay: cell-based or functional assay
[14] = target: HIV-1 Env of pseudovirus MGRM-F1-016 (HIV-1); assay: cell-based or functional assay
[15] = target: HIV-1 Env of pseudovirus MGRM-G-013 (HIV-1, clade G isolate MGRM-G-013); assay: cell-based or functional assay
[16] = target: HIV-1 Env of pseudovirus MGRM-G-024 (HIV-1, clade G isolate MGRM-G-024); assay: cell-based or functional assay
[17] = target: HIV-1 IAVI-C22 envelope glycoprotein (Env) on pseudovirus (HIV-1); assay: cell-based or functional assay
[18] = target: HIV-1 envelope glycoprotein (Env) of isolate MGRM-A-002, clade A (HIV-1); assay: cell-based or functional assay
[19] = target: HIV-1 envelope glycoprotein (Env) of isolate MGRM-A-013, clade A (HIV-1); assay: cell-based or functional assay
[20] = target: HIV-1 94UG103 Env (pseudovirus, clade A) (HIV-1); assay: cell-based or functional assay
[21] = target: HIV-1 Env of isolate MGRM-G-017 (HIV-1); assay: cell-based or functional assay
[22] = target: HIV-1 Env of isolate 6535.3 (subtype B pseudovirus) (HIV-1); assay: cell-based or functional assay
[23] = target: HIV-1 Env of isolate 93IN905 (subtype C pseudovirus) (HIV-1); assay: cell-based or functional assay
[24] = target: HIV-1 Env of isolate CAAN.A2 (subtype B pseudovirus) (HIV-1); assay: cell-based or functional assay
[25] = target: HIV-1 Env of isolate MGRM-AE-005 (HIV-1); assay: cell-based or functional assay
[26] = target: HIV-1 Env of isolate MGRM-AG-012 (HIV-1); assay: cell-based or functional assay
[27] = target: HIV-1 Env of isolate MGRM-Chronic-B-018 (subtype B pseudovirus) (HIV-1); assay: cell-based or functional assay
[28] = target: HIV-1 Env of isolate MGRM-D-019 (pseudovirus) (HIV-1); assay: cell-based or functional assay
[29] = target: HIV-1 Env of isolate MGRM-D-021 (pseudovirus) (HIV-1); assay: cell-based or functional assay
[30] = target: HIV-1 Env of isolate MGRM-F1-008 (pseudovirus) (HIV-1); assay: cell-based or functional assay
[31] = target: HIV-1 Env of isolate MGRM-F1-010 (pseudovirus) (HIV-1); assay: cell-based or functional assay
[32] = target: HIV-1 Env of isolate MGRM-F1-012 (pseudovirus) (HIV-1); assay: cell-based or functional assay
[33] = target: HIV-1 Env of isolate PVO.4 (subtype B pseudovirus) (HIV-1); assay: cell-based or functional assay
[34] = target: JR-FL gp120 ΔV1/ΔV2 (HIV-1); assay: ELISA, antigen-coated wells

Sequence of 1443_C16 (PG16) (TCN-116) (antibody) (VH): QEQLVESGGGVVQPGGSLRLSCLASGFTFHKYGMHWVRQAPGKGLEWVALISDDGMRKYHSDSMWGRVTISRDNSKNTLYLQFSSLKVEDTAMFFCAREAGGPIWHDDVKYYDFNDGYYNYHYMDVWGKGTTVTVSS
Sequence of 1443_C16 (PG16) (TCN-116) (antibody) (VL): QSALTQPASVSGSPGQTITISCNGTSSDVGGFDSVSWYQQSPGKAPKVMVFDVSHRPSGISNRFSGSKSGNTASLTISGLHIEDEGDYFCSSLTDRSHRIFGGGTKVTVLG

Row | Substance | IC50, pseudovirus neutralization [1] | IC50, pseudovirus neutralization [2] | IC50, pseudovirus neutralization [3] | IC50 (µg/ml), pseudovirus neutralization [4] | IC50 [5] | IC50 (µg/ml), pseudovirus neutralization [6] | IC50 (µg/ml), pseudovirus neutralization [7] | IC50 (µg/ml), pseudovirus neutralization [8] | IC50 [9] | IC50 [10] | IC50 (µg/ml), pseudovirus neutralization [11] | IC50 (µg/ml), pseudovirus neutralization [12] | IC50 (µg/ml), pseudovirus neutralization [13] | IC50 (µg/ml), pseudovirus neutralization [14] | IC50 (µg/ml), pseudovirus neutralization [15] | IC50 (µg/ml), pseudovirus neutralization [16] | IC50, pseudovirus neutralization [17] | IC50 (µg/ml), pseudovirus neutralization [18] | IC50 (µg/ml), pseudovirus neutralization [19] | also measured
1 | 2F5 (antibody) | > 50 µg/mL | 1.51 µg/mL | 2.8 µg/mL | 0.95 µg/mL | > 50 µg/mL | 2.3 µg/mL | 9.85 µg/mL | > 50 µg/mL | 0.75 µg/mL | 1.79 µg/mL | 0.1 µg/mL | 15.1 µg/mL | 0.1 µg/mL | 21.5 µg/mL | 0.59 µg/mL | 1.07 µg/mL | > 50 µg/mL | > 50 µg/mL | 0.66 µg/mL | 
2 | 2G12 (antibody) | 2.26 µg/mL | > 50 µg/mL | 23.9 µg/mL | 0.42 µg/mL | > 50 µg/mL | > 50 µg/mL | > 50 µg/mL | > 50 µg/mL | 0.69 µg/mL | 0.95 µg/mL | 0.16 µg/mL | > 50 µg/mL | > 50 µg/mL | > 50 µg/mL | > 50 µg/mL | > 50 µg/mL | > 50 µg/mL | > 50 µg/mL | > 50 µg/mL | 
3 | 4E10 (antibody) | 41.4 µg/mL | 1.9 µg/mL | 3.8 µg/mL | 2.17 µg/mL | 1.26 µg/mL | 1.58 µg/mL | 15.4 µg/mL | > 50 µg/mL | 1.12 µg/mL | 2.61 µg/mL | 27.9 µg/mL | 7.36 µg/mL | 0.53 µg/mL | 7.61 µg/mL | 1.15 µg/mL | 1.57 µg/mL | 1.02 µg/mL | 6.45 µg/mL | 1.46 µg/mL | 
4 | 1443_C16 (PG16) (TCN-116) (antibody) | > 50 µg/mL | 0.127 µg/mL | > 50 µg/mL | 24 µg/mL | 0.25 µg/mL | 0.01 µg/mL | 0.02 µg/mL | 16.3 µg/mL | 0.03 µg/mL | 0.31 µg/mL | 0.13 µg/mL | 0.01 µg/mL | > 50 µg/mL | 1.12 µg/mL | > 50 µg/mL | 0.01 µg/mL | 0.0687 µg/mL | 0.004 µg/mL | 0.09 µg/mL | 
5 | 1495_C14 (PGC14) (antibody) | 0.637 µg/mL | > 50 µg/mL | > 50 µg/mL | > 50 µg/mL | 19 µg/mL | > 50 µg/mL | > 50 µg/mL | > 50 µg/mL | > 50 µg/mL | > 50 µg/mL | > 50 µg/mL | > 50 µg/mL | > 50 µg/mL | > 50 µg/mL | > 50 µg/mL | > 50 µg/mL | 9.5 µg/mL | > 50 µg/mL | > 50 µg/mL | 
6 | 1496_C09 (PG9) (TCN-109) (antibody) |  | 0.111 µg/mL |  | 1.91 µg/mL | 0.03 µg/mL | 0.03 µg/mL | 0.1 µg/mL | 2.03 µg/mL | 8.83 µg/mL | 0.23 µg/mL | 0.04 µg/mL | 0.01 µg/mL |  | 0.58 µg/mL |  | 0.07 µg/mL | 24.9 µg/mL |  | 0.16 µg/mL | IC50 neutralization [20]: 0.31 µg/mL; IC50 (µg/mL), pseudovirus neutralization [21]: 0.104 µg/mL
7 | 4838_L06 (PGT-121) (antibody) |  |  |  |  |  |  |  |  |  |  |  |  |  |  |  |  |  |  |  | IC50 (µg/mL), pseudovirus neutralization [22]: 0.005 µg/mL; IC50 (µg/mL), pseudovirus neutralization [23]: 0.005 µg/mL; IC50 (µg/mL), pseudovirus neutralization [24]: 0.011 µg/mL; IC50 [25]: > 50 µg/mL; IC50 [26]: > 50 µg/mL; IC50 (µg/mL), pseudovirus neutralization [27]: > 50 µg/mL; IC50, pseudovirus neutralization [28]: > 50 µg/mL; IC50, pseudovirus neutralization [29]: 5.33 µg/mL; IC50, pseudovirus neutralization [30]: > 50 µg/mL; IC50, pseudovirus neutralization [31]: 0.016 µg/mL; IC50, pseudovirus neutralization [32]: 1.91 µg/mL; IC50 (µg/mL), pseudovirus neutralization [33]: 0.137 µg/mL; EC50 [34]: 0.2 µg/mL
